# Source: US20120196335A1, “LIGF-TYPE TRANSFORMANTS FOR BIOCONVERSION OF LIGNIN-DERIVED COMPOUNDS” (priority 2010, published 2012)
# B1: ligE: S. paucimobilis beta-etherase, positive control, GenBank BAA02032.1, SEQ ID NO:1 (protein)
# chain: MARNNTITLYDLQLESGCTISPYVWRTKYALKHKGFDIDIVPGGFTGILERTGGRSERVPVIVDDGEWVLDSWVIAEYLDEKYPDRPMLFEGPTQKNLMKFLDNWLWSTAVGPWFRCYILDYHDLSLPQDRDYVRWSREQWFLGGQRLEDVQAGREDRLPLVPPTLEPFRRILAETKWLGGDQPNFADYSALAVFLWTASVARTPPLTEDDPLRDWLDRGFDLFDGLGRHPGMNPLFGLKLREGDPEPFVRQTGPAGAGGQALNKGPQTTKMPPRVAEKAD
# B2: LigF: S. paucimobilis beta-etherase, positive control, GenBank BAA02031.1, SEQ ID NO:513 (protein)
# chain: MTLKLYSFGPGANSLKPLATLYEKGLEFEQVFVDPSKFEQHSDWFKKINPRGQVPALWHDGKVVTESTVICEYLEDVFPESGNSLRPADPFKRAEMRVWTKWVDEYFCWCVSTIGWAFGIKAIAQKMSDEEFEEHINKNVPIPEQQLKWRRARNGFPQEMLDEEFRKVGVSVARLEETLSKQDYLVDTGYSLADICNFAIANGLQRPGGFFGDYVNQEKTPGLCAWLDRINARPAIKEMFEKSKREDLLKRQNEKVA
# B3: LigG: S. paucimobilis glutathione-eliminating glutathione S transferase, ligG gene product (protein)
# chain: MSGASARSLGKGSAPPGPVPEGQIRVYSMRFCPFAQRTLMVLKAKGIRHEIININLKNKPEWFFEKNPFGLVPVLENTQGHLITESVITCEYLDEAYPEKKLFPDDPYEKACQKMTFELFSKVPSLVTSFIRAKRKEDHPGIKEELKKEFSKLEEAMANKRTAFFGGNSLSMIDYLIWPWFQRLEALELNECIDHTPKLKLWMATMQEDPVASSHFIDAKTYRDYLSLYLQDSPEACDYGL
# Assay: in vitro biochemical assay for beta-etherase activity on fluorescent substrate MUAV (clarified E. coli cell extracts)
# Conditions: 0.1 mM MUAV substrate; E. coli cell extracts expressing the protein
# Source text: The model substrate synthesis 150 for use in the biochemical screening for selective activity can be outsourced through a contract research organization (CRO). The enzyme discovery effort can initially be focused on identifying potential beta-etherase candidate genes identified through bioinformatic methods. […] The fluorescent substrate α-O-(β-methylumbelliferyl)acetovanillone (MUAV), for example, can be used in in vitro assays to identify beta-etherase function (Acme Biosciences, Mt. View, Calif.). The formation of 4 methylumbelliferone (4MU) upon hydrolysis of the aryl ether bond can be monitored by fluorescence, for example, at λex=365 nm and λem=450 nm (or 460 nm).
# The enzyme screening 155 is done to identify novel etherases 160. […] Expression of the beta-etherase genes can be done in 5 ml or 25 ml samples of the recombinant E. coli strains in LB medium using induction with IPTG. Following induction, and cell harvest, cell pellets can be lysed using the BPER (Invitrogen) cell lysis system. […] The formation of 4 methylumbelliferone (4MU) upon hydrolysis of the aryl ether bond in MUAV can be monitored by fluorescence at λex=365 nm and λem=460 nm, and can provide quantitative measurement of beta-etherase function. Cell extracts of E. coli transformed with the S. paucimobilis ligE and ligF genes can be the assay positive controls. Test or unknown samples can include, for example, E. coli strains expressing putative beta-etherase genes from N. aromaticovorans.
# This example describes a method for gene expression in E. coli, as well as beta-etherase biochemical assays. Expression of known and putative beta-etherase genes was performed using 5 ml cultures of the recombinant E. coli strains described herein in Luria Broth medium by induction of gene expression using isopropylthiogalactoside (IPTG) to a final concentration of 0.1 mM. Following induction, and cell harvest, the cells were disrupted using either sonication or the BPER (Invitrogen) cell lysis system.
# In vitro reactions were performed in a total volume of 200 ul and contained: 25 mM TrisHCl pH 7.5; 0.5 mM dithiothreitol; 1 mM glutathione; 0.05 mM or 0.1 mM MUAV; 10 ul of clarified cell extract used to initiate the reactions. Following incubation for 2.5 hours at room temperature, a 50 ul sample of the reactions was terminated using 150 uL of 300 mM glycine/NaOH buffer pH 9. The formation of 4 methylumbelliferone (4MU) upon hydrolysis of the aryl ether bond was monitored by the increase in fluorescence at λex=360 nm and λem=450 nm using a Spectramax UV/visible/fluorescent spectrophotometer.
# The total protein concentrations of the cell lysates were determined using the BCA reagent system for protein quantification (Pierce).
# Induction might be also performed using IPTG concentrations in the range of 0.01-1 mM. Cell disruption might be also performed using toluene permeabilization, French pressure techniques, or using multiple freeze/thaw cycles in conjunction with lysozyme. Assay conditions might be varied to include TrisHCl at 10-150 mM concentrations and in the pH range of 6.5-8.5; 0-2 mM dithiothreitol; 0.05-2 mM glutathione; 0.01-5 mM MUAV substrate; 22-42° C. reaction temperatures. The biochemical assay might be performed as a fixed time point assay with reaction times ranging from 5 minutes-12 hours, or performed continuously without quenching with glycine/NaOH buffer to extract enzyme kinetic parameters.
row,Molecule,total activity (beta-etherase) [rfu/ug]
1,B1,7
2,B2,558

# Assay: not given
# Conditions: LigDFEG gene cluster, FIG. 2B; cited from earlier work
row,Molecule,enzyme activity shown by gene product
1,"LigD: S. paucimobilis C alpha-dehydrogenase, ligD gene product",Cα-dehydrogenase activity
2,B1,β-etherase activity
3,B2,β-etherase activity
4,B3,glutathione lyase activity
